Measurements taken from paper PMC9482650, “Quantitative fragmentomics allow affinity mapping of interactomes” (Nature Communications, 2022).

Experiments:
Assay in all cases: holdup assay
Set-up in all cases: key: below the threshold = too weak to quantify, mostly under pKd 3.1 to 4
GORASP2, Q9H8Y8 = molecular target: GORASP2, Q9H8Y8
FRMPD4, Q14CM0 = molecular target: FRMPD4, Q14CM0
SCRIB_1, Q14160 = molecular target: SCRIB_1, Q14160
MAGI1_1, Q96QZ7 = molecular target: MAGI1_1, Q96QZ7
DLG3_1, Q92796 = molecular target: T1, DLG3_1, Q92796
T1 sequence (Q92796 125-227, limits assumed, looked up): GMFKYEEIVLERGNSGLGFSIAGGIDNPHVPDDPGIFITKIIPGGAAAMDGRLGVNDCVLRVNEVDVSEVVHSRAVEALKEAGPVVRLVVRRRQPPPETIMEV

FRMPD1, Q5SYB0 = molecular target: T2, FRMPD1, Q5SYB0
T2 sequence (Q5SYB0 52-145, limits assumed, looked up): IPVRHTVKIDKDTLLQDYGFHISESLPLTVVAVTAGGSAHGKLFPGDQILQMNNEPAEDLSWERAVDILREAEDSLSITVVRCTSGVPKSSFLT

LIN7A, O14910 = molecular target: T3, LIN7A, O14910
T3 sequence (O14910 103-200, limits assumed, looked up): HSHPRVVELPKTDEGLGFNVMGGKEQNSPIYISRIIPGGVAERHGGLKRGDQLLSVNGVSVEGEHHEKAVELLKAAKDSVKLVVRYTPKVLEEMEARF

DLG2_2, Q15700 = molecular target: DLG2_2, Q15700
Chain of DLG2_2, Q15700 (Q15700 189-283): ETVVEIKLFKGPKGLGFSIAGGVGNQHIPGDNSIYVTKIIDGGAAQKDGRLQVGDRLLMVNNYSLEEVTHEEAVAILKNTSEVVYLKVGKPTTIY

GRIP2_7, Q9C0E4 = molecular target: GRIP2_7, Q9C0E4
Chain of GRIP2_7, Q9C0E4 (Q9C0E4 934-1023): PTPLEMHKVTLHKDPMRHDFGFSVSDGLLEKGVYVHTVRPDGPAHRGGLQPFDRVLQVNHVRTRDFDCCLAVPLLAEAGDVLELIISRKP

MAGI2_4, Q86UL8 = molecular target: MAGI2_4, Q86UL8
Chain of MAGI2_4, Q86UL8 (Q86UL8 772-865): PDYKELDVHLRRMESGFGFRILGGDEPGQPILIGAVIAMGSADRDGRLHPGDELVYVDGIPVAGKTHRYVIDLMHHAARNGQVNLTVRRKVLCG

GRIP1_2, Q9Y3R0 = molecular target: T4, GRIP1_2, Q9Y3R0
T4 sequence (Q9Y3R0 145-248, limits assumed, looked up): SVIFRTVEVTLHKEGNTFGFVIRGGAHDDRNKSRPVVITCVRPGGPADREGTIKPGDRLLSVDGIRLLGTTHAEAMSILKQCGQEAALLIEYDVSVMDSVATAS

SNTA1, Q13424 = molecular target: T5, SNTA1, Q13424
T5 sequence (Q13424 82-180, limits assumed, looked up): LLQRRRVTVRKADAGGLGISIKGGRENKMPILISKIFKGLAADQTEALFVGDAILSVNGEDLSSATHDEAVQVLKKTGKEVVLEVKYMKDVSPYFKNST

IL16_3, Q14005 = molecular target: IL16_3, Q14005
Chain of IL16_3, Q14005 (Q14005 1107-1207): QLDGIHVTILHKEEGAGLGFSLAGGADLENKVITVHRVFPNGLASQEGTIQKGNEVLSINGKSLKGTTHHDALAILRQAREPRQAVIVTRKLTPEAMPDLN

DFNB31_2, Q9P202 = molecular target: T6, DFNB31_2, Q9P202
T6 sequence (Q9P202 274-371, limits assumed, looked up): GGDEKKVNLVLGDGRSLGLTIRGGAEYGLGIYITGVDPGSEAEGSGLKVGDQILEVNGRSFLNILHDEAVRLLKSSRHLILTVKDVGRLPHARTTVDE

APBA1_1, Q02410 = molecular target: T7, APBA1_1, Q02410
T7 sequence (Q02410 651-752, limits assumed, looked up): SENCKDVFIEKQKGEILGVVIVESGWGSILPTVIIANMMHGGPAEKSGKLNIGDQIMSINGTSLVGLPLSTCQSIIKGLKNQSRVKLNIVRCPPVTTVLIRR

HTRA1, Q92743 = molecular target: HTRA1, Q92743
Chain of HTRA1, Q92743 (Q92743 360-477): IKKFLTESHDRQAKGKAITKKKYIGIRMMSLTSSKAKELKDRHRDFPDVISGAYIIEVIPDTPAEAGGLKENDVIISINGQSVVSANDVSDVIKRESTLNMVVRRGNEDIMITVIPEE

PARD3B_1, Q8TEW8 = molecular target: T8, PARD3B_1, Q8TEW8
T8 sequence (Q8TEW8 196-299, limits assumed, looked up): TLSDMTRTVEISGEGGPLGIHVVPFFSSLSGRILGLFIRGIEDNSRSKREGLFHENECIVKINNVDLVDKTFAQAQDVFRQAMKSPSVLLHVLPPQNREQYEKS

MPP2, Q14168 = molecular target: T9, MPP2, Q14168
T9 sequence (Q14168 180-250, limits assumed, looked up): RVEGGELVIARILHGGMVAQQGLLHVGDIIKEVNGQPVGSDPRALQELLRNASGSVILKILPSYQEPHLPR

DFNB31_3, Q9P202 = molecular target: T10, DFNB31_3, Q9P202
T10 sequence (Q9P202 811-907, limits assumed, looked up): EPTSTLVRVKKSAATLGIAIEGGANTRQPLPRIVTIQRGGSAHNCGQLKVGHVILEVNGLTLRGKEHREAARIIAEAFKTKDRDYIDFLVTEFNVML

MAGI2_6, Q86UL8 = molecular target: MAGI2_6, Q86UL8
Chain of MAGI2_6, Q86UL8 (Q86UL8 1141-1229): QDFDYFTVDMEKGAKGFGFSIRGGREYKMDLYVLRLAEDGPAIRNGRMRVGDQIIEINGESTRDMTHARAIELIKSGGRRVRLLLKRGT

APBA2_2, Q99767 = molecular target: T11, APBA2_2, Q99767
T11 sequence (Q99767 654-744, limits assumed, looked up): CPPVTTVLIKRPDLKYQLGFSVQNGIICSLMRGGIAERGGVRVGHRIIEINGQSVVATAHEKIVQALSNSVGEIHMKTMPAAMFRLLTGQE

MAST2, Q6P0Q8 = molecular target: MAST2, Q6P0Q8
Chain of MAST2, Q6P0Q8 (Q6P0Q8 1099-1202): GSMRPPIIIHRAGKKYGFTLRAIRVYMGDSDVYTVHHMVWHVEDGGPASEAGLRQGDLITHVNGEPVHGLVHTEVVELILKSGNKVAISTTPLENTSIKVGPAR

LNX1_2, Q8TBB1 = molecular target: LNX1_2, Q8TBB1
Chain of LNX1_2, Q8TBB1 (Q8TBB1 371-470): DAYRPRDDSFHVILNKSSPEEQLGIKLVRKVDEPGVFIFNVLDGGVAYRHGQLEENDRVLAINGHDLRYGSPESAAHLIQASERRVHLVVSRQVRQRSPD

GRASP, Q7Z6J2 = molecular target: GRASP, Q7Z6J2
Chain of GRASP, Q7Z6J2 (Q7Z6J2 96-193): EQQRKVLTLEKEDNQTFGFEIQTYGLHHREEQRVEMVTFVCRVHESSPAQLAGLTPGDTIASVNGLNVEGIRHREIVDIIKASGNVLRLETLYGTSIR

HTRA4, P83105 = molecular target: T12, HTRA4, P83105
T12 sequence (P83105 378-476, limits assumed, looked up): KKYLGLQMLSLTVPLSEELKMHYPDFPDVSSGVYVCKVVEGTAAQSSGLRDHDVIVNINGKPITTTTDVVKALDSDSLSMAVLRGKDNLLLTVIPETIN

[1] = plain residues with an end cap or a label only (N-terminal biotin on a linker: ahx)
[2] = plain residues with an end cap or a label only (N-terminal biotin on a linker: ttds)

Chain of SCRIB_1, Q14160 (Q14160 718-814): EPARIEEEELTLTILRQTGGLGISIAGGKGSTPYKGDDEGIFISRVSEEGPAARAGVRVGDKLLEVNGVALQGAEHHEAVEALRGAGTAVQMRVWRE
Chain of FRMPD4, Q14CM0 (Q14CM0 67-160): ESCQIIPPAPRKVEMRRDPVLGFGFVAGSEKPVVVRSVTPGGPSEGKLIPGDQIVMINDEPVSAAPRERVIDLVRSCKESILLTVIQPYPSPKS
Chain of MAGI1_1, Q96QZ7 (Q96QZ7 1-106): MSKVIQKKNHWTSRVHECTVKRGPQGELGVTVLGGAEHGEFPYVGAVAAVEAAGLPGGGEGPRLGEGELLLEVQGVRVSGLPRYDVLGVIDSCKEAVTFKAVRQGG

## TIVSWPGTFL [LNX1, Q8TBB1]
GORASP2, Q9H8Y8; [1]
  pKd: below the threshold
FRMPD4, Q14CM0; [1]
  pKd: 3.73
SCRIB_1, Q14160; [1]
  pKd: below the threshold
MAGI1_1, Q96QZ7; [1]
  pKd: below the threshold
DLG3_1, Q92796; [1]
  pKd: below the threshold
FRMPD1, Q5SYB0; [1]
  pKd: below the threshold
LIN7A, O14910; [1]
  pKd: below the threshold
DLG2_2, Q15700; [1]
  pKd: below the threshold
GRIP2_7, Q9C0E4; [1]
  pKd: below the threshold
MAGI2_4, Q86UL8; [1]
  pKd: below the threshold
GRIP1_2, Q9Y3R0; [1]
  pKd: below the threshold
SNTA1, Q13424; [1]
  pKd: below the threshold
IL16_3, Q14005; [1]
  pKd: below the threshold
DFNB31_2, Q9P202; [1]
  pKd: below the threshold
APBA1_1, Q02410; [1]
  pKd: below the threshold
HTRA1, Q92743; [1]
  pKd: 4.61
PARD3B_1, Q8TEW8; [1]
  pKd: 4.31
MPP2, Q14168; [1]
  pKd: below the threshold
DFNB31_3, Q9P202; [1]
  pKd: below the threshold
MAGI2_6, Q86UL8; [1]
  pKd: 3.67
APBA2_2, Q99767; [1]
  pKd: below the threshold
MAST2, Q6P0Q8; [1]
  pKd: 4.59
LNX1_2, Q8TBB1; [1]
  pKd: below the threshold
GRASP, Q7Z6J2; [1]
  pKd: 4.15
HTRA4, P83105; [1]
  pKd: 4

## NQLAWFDTDL [CTNNB1, P35222]
GORASP2, Q9H8Y8; [2]
  pKd: below the threshold
FRMPD4, Q14CM0; [2]
  pKd: 4.28
SCRIB_1, Q14160; [2]
  pKd: 4.86
MAGI1_1, Q96QZ7; [2]
  pKd: below the threshold
DLG3_1, Q92796; [2]
  pKd: below the threshold
FRMPD1, Q5SYB0; [2]
  pKd: below the threshold
LIN7A, O14910; [2]
  pKd: below the threshold
DLG2_2, Q15700; [2]
  pKd: below the threshold
GRIP2_7, Q9C0E4; [2]
  pKd: below the threshold
MAGI2_4, Q86UL8; [2]
  pKd: below the threshold
GRIP1_2, Q9Y3R0; [2]
  pKd: below the threshold
SNTA1, Q13424; [2]
  pKd: below the threshold
IL16_3, Q14005; [2]
  pKd: below the threshold
DFNB31_2, Q9P202; [2]
  pKd: below the threshold
APBA1_1, Q02410; [2]
  pKd: below the threshold
HTRA1, Q92743; [2]
  pKd: below the threshold
PARD3B_1, Q8TEW8; [2]
  pKd: below the threshold
MPP2, Q14168; [2]
  pKd: below the threshold
DFNB31_3, Q9P202; [2]
  pKd: below the threshold
MAGI2_6, Q86UL8; [2]
  pKd: 5.15
APBA2_2, Q99767; [2]
  pKd: below the threshold
MAST2, Q6P0Q8; [2]
  pKd: 6.04
LNX1_2, Q8TBB1; [2]
  pKd: below the threshold
GRASP, Q7Z6J2; [2]
  pKd: below the threshold
HTRA4, P83105; [2]
  pKd: below the threshold

## SRRPRTETQV [HPV31-E6, P17386]
GORASP2, Q9H8Y8; [2]
  pKd: 3.65
FRMPD4, Q14CM0; [2]
  pKd: below the threshold
SCRIB_1, Q14160; [2]
  pKd: 4.6
MAGI1_1, Q96QZ7; [2]
  pKd: below the threshold
DLG3_1, Q92796; [2]
  pKd: 4.44
FRMPD1, Q5SYB0; [2]
  pKd: below the threshold
LIN7A, O14910; [2]
  pKd: 3.51
DLG2_2, Q15700; [2]
  pKd: 5.37
GRIP2_7, Q9C0E4; [2]
  pKd: below the threshold
MAGI2_4, Q86UL8; [2]
  pKd: 4.48
GRIP1_2, Q9Y3R0; [2]
  pKd: below the threshold
SNTA1, Q13424; [2]
  pKd: 4.29
IL16_3, Q14005; [2]
  pKd: below the threshold
DFNB31_2, Q9P202; [2]
  pKd: below the threshold
APBA1_1, Q02410; [2]
  pKd: below the threshold
HTRA1, Q92743; [2]
  pKd: below the threshold
PARD3B_1, Q8TEW8; [2]
  pKd: below the threshold
MPP2, Q14168; [2]
  pKd: below the threshold
DFNB31_3, Q9P202; [2]
  pKd: below the threshold
MAGI2_6, Q86UL8; [2]
  pKd: below the threshold
APBA2_2, Q99767; [2]
  pKd: below the threshold
MAST2, Q6P0Q8; [2]
  pKd: 5.23
LNX1_2, Q8TBB1; [2]
  pKd: below the threshold
GRASP, Q7Z6J2; [2]
  pKd: below the threshold
HTRA4, P83105; [2]
  pKd: below the threshold
